The values that follow come from patent publication US20260242419A1, “A CYCLIC PEPTIDE FOR TRAPPING INTERLEUKIN-1 BETA” (Merck Sharp & Dohme LLC, priority 2023, published 2026).

B1: SEQ ID NO: 15 (peptide)
peptide: cyclo([Bip(4'-COOH)][4Pal][Phe(4-COOH)]G[Pro(cis-4-F)][Trp(βS-Me,4-F)][Aib]EW[Aib][4Pal]Q[Dab]G[dPro(4R-(4-pyridylmethyl))])
SMILES: C[C@@H](c1c[nH]c2cccc(F)c12)[C@@H]1NC(=O)[C@@H]2C[C@H](F)CN2C(=O)CNC(=O)[C@H](Cc2ccc(C(=O)O)cc2)NC(=O)[C@H](Cc2ccncc2)NC(=O)[C@H](Cc2ccc(-c3ccc(C(=O)O)cc3)cc2)NC(=O)[C@H]2C[C@@H](Cc3ccncc3)CN2C(=O)CNC(=O)[C@H](CCN)NC(=O)[C@H](CCC(N)=O)NC(=O)[C@H](Cc2ccncc2)NC(=O)C(C)(C)NC(=O)[C@H](Cc2c[nH]c3ccccc23)NC(=O)[C@H](CCC(=O)O)NC(=O)C(C)(C)NC1=O
B2: SEQ ID NO: 26 (peptide)
peptide: cyclo([3Pal4Ph4CO2H][4Pal][Phe(4-COOH)]G[Pro(cis-4-F)][Trp(βS-Me,4-F)][Aib]EW[Aib][Ala(pyrimidin-5-yl)]Q[Dab]G[dPro(4R-Bzl(4-F))])
SMILES: C[C@@H](c1c[nH]c2cccc(F)c12)[C@@H]1NC(=O)[C@@H]2C[C@H](F)CN2C(=O)CNC(=O)[C@H](Cc2ccc(C(=O)O)cc2)NC(=O)[C@H](Cc2ccncc2)NC(=O)[C@H](Cc2ccc(-c3ccc(C(=O)O)cc3)nc2)NC(=O)[C@H]2C[C@@H](Cc3ccc(F)cc3)CN2C(=O)CNC(=O)[C@H](CCN)NC(=O)[C@H](CCC(N)=O)NC(=O)[C@H](Cc2cncnc2)NC(=O)C(C)(C)NC(=O)[C@H](Cc2c[nH]c3ccccc23)NC(=O)[C@H](CCC(=O)O)NC(=O)C(C)(C)NC1=O
B3: SEQ ID NO: 24 (peptide)
peptide: cyclo([Bip(4'-COOH)][4Pal][Phe(4-COOH)]G[Pro(cis-4-F)][Trp(βS-Me,4-F)][Aib]EW[Aib][Ala(pyrimidin-5-yl)]Q[Ala(morpholin-4-yl)]G[dPro(4R-Bzl(4-F))])
SMILES: C[C@@H](c1c[nH]c2cccc(F)c12)[C@@H]1NC(=O)[C@@H]2C[C@H](F)CN2C(=O)CNC(=O)[C@H](Cc2ccc(C(=O)O)cc2)NC(=O)[C@H](Cc2ccncc2)NC(=O)[C@H](Cc2ccc(-c3ccc(C(=O)O)cc3)cc2)NC(=O)[C@H]2C[C@@H](Cc3ccc(F)cc3)CN2C(=O)CNC(=O)[C@H](CN2CCOCC2)NC(=O)[C@H](CCC(N)=O)NC(=O)[C@H](Cc2cncnc2)NC(=O)C(C)(C)NC(=O)[C@H](Cc2c[nH]c3ccccc23)NC(=O)[C@H](CCC(=O)O)NC(=O)C(C)(C)NC1=O
B4: SEQ ID NO: 2 (peptide)
peptide: cyclo([Bip(4'-COOH)][4Pal][Phe(4-COOH)]G[Pro(cis-4-F)][Trp(βS-Me,4-F)][Aib]EW[Aib][4Pal]Q[Dab]G[dPro(4R-Bzl(4-F))])
SMILES: C[C@@H](c1c[nH]c2cccc(F)c12)[C@@H]1NC(=O)[C@@H]2C[C@H](F)CN2C(=O)CNC(=O)[C@H](Cc2ccc(C(=O)O)cc2)NC(=O)[C@H](Cc2ccncc2)NC(=O)[C@H](Cc2ccc(-c3ccc(C(=O)O)cc3)cc2)NC(=O)[C@H]2C[C@@H](Cc3ccc(F)cc3)CN2C(=O)CNC(=O)[C@H](CCN)NC(=O)[C@H](CCC(N)=O)NC(=O)[C@H](Cc2ccncc2)NC(=O)C(C)(C)NC(=O)[C@H](Cc2c[nH]c3ccccc23)NC(=O)[C@H](CCC(=O)O)NC(=O)C(C)(C)NC1=O
B5: SEQ ID NO: 19 (peptide)
peptide: cyclo([Bip(4'-COOH)][4Pal][Phe(4-COOH)]G[Pro(cis-4-F)][Trp(βS-Me,4-F)][d(αMeS)]EW[Aib][Ala(pyrimidin-5-yl)]Q[Dab]G[dPro(4R-Bzl(4-F))])
SMILES: C[C@@H](c1c[nH]c2cccc(F)c12)[C@@H]1NC(=O)[C@@H]2C[C@H](F)CN2C(=O)CNC(=O)[C@H](Cc2ccc(C(=O)O)cc2)NC(=O)[C@H](Cc2ccncc2)NC(=O)[C@H](Cc2ccc(-c3ccc(C(=O)O)cc3)cc2)NC(=O)[C@H]2C[C@@H](Cc3ccc(F)cc3)CN2C(=O)CNC(=O)[C@H](CCN)NC(=O)[C@H](CCC(N)=O)NC(=O)[C@H](Cc2cncnc2)NC(=O)C(C)(C)NC(=O)[C@H](Cc2c[nH]c3ccccc23)NC(=O)[C@H](CCC(=O)O)NC(=O)[C@@](C)(CO)NC1=O
B6: SEQ ID NO: 25 (peptide)
peptide: cyclo([TyrEtNAc][Ala(1-bicyclo(1.1.1)pentyl)][Phe(4-COOH)]G[Pro(cis-4-F)][Trp(βS-Me,4-F)][Aib]EW[Aib][Ala(pyrimidin-5-yl)]Q[Dab]G[dPro(4R-Bzl(4-F))])
SMILES: CC(=O)NCCOc1ccc(C[C@@H]2NC(=O)[C@H]3C[C@@H](Cc4ccc(F)cc4)CN3C(=O)CNC(=O)[C@H](CCN)NC(=O)[C@H](CCC(N)=O)NC(=O)[C@H](Cc3cncnc3)NC(=O)C(C)(C)NC(=O)[C@H](Cc3c[nH]c4ccccc34)NC(=O)[C@H](CCC(=O)O)NC(=O)C(C)(C)NC(=O)[C@H]([C@@H](C)c3c[nH]c4cccc(F)c34)NC(=O)[C@@H]3C[C@H](F)CN3C(=O)CNC(=O)[C@H](Cc3ccc(C(=O)O)cc3)NC(=O)[C@H](CC34CC(C3)C4)NC2=O)cc1
B7: SEQ ID NO: 18 (peptide)
peptide: cyclo([Bip(4'-COOH)][4Pal][Phe(4-COOH)]G[Pro(cis-4-F)][Trp(βS-Me,4-F)][Aib]EW[αMeS][Ala(pyrimidin-5-yl)]Q[Dab]G[dPro(4R-Bzl(4-F))])
SMILES: C[C@@H](c1c[nH]c2cccc(F)c12)[C@@H]1NC(=O)[C@@H]2C[C@H](F)CN2C(=O)CNC(=O)[C@H](Cc2ccc(C(=O)O)cc2)NC(=O)[C@H](Cc2ccncc2)NC(=O)[C@H](Cc2ccc(-c3ccc(C(=O)O)cc3)cc2)NC(=O)[C@H]2C[C@@H](Cc3ccc(F)cc3)CN2C(=O)CNC(=O)[C@H](CCN)NC(=O)[C@H](CCC(N)=O)NC(=O)[C@H](Cc2cncnc2)NC(=O)[C@](C)(CO)NC(=O)[C@H](Cc2c[nH]c3ccccc23)NC(=O)[C@H](CCC(=O)O)NC(=O)C(C)(C)NC1=O
B8: SEQ ID NO: 21 (peptide)
peptide: cyclo([Bip(4'-COOH)][4Pal][Phe(4-COOH)]G[Pro(cis-4-F)][Trp(βS-Me,4-F)][Aib]EW[3Aminoazetidine3carboxyl][Ala(pyrimidin-5-yl)]Q[Dab]G[dPro(4R-Bzl(4-F))])
SMILES: C[C@@H](c1c[nH]c2cccc(F)c12)[C@@H]1NC(=O)[C@@H]2C[C@H](F)CN2C(=O)CNC(=O)[C@H](Cc2ccc(C(=O)O)cc2)NC(=O)[C@H](Cc2ccncc2)NC(=O)[C@H](Cc2ccc(-c3ccc(C(=O)O)cc3)cc2)NC(=O)[C@H]2C[C@@H](Cc3ccc(F)cc3)CN2C(=O)CNC(=O)[C@H](CCN)NC(=O)[C@H](CCC(N)=O)NC(=O)[C@H](Cc2cncnc2)NC(=O)C2(CNC2)NC(=O)[C@H](Cc2c[nH]c3ccccc23)NC(=O)[C@H](CCC(=O)O)NC(=O)C(C)(C)NC1=O
B9: SEQ ID NO: 23 (peptide)
peptide: cyclo([Bip(4'-COOH)][4Pal][Phe(4-COOH)]G[Pro(cis-4-F)][Trp(βS-Me,4-F)][Aib]EW[d(αMeS)][Ala(pyrimidin-5-yl)]Q[Dab]G[dPro(4R-Bzl(4-F))])
SMILES: C[C@@H](c1c[nH]c2cccc(F)c12)[C@@H]1NC(=O)[C@@H]2C[C@H](F)CN2C(=O)CNC(=O)[C@H](Cc2ccc(C(=O)O)cc2)NC(=O)[C@H](Cc2ccncc2)NC(=O)[C@H](Cc2ccc(-c3ccc(C(=O)O)cc3)cc2)NC(=O)[C@H]2C[C@@H](Cc3ccc(F)cc3)CN2C(=O)CNC(=O)[C@H](CCN)NC(=O)[C@H](CCC(N)=O)NC(=O)[C@H](Cc2cncnc2)NC(=O)[C@@](C)(CO)NC(=O)[C@H](Cc2c[nH]c3ccccc23)NC(=O)[C@H](CCC(=O)O)NC(=O)C(C)(C)NC1=O
B10: SEQ ID NO: 17 (peptide)
peptide: cyclo([Bip(4'-COOH)][4Pal][Phe(4-COOH)]G[Pro(cis-4-F)][Trp(βS-Me,4-F)][Aib]DW[Aib][Ala(pyrimidin-5-yl)]Q[Dab]G[dPro(4R-Bzl(4-F))])
SMILES: C[C@@H](c1c[nH]c2cccc(F)c12)[C@@H]1NC(=O)[C@@H]2C[C@H](F)CN2C(=O)CNC(=O)[C@H](Cc2ccc(C(=O)O)cc2)NC(=O)[C@H](Cc2ccncc2)NC(=O)[C@H](Cc2ccc(-c3ccc(C(=O)O)cc3)cc2)NC(=O)[C@H]2C[C@@H](Cc3ccc(F)cc3)CN2C(=O)CNC(=O)[C@H](CCN)NC(=O)[C@H](CCC(N)=O)NC(=O)[C@H](Cc2cncnc2)NC(=O)C(C)(C)NC(=O)[C@H](Cc2c[nH]c3ccccc23)NC(=O)[C@H](CC(=O)O)NC(=O)C(C)(C)NC1=O

Starred links: 1 amine or outer side, 2 acyl side, 3 side chain; linkers in the order of their positions; H or OH if unused. Non-standard residues stand in square brackets, D forms with d. 3Pal4Ph4CO2H = 4-[5-[(2S)-2-amino-2-carboxy-ethyl]-2-pyridyl]benzoic acid, O=C([C@H](Cc1ccc(-c2ccc(C(=O)[*:3])cc2)nc1)N[*:1])[*:2]; TyrEtNAc = (2S)-3-[4-(2-acetamidoethoxy)phenyl]-2-amino-propanoic acid, CC(=O)NCCOc1ccc(C[C@H](N[*:1])C(=O)[*:2])cc1; dPro(4R-(4-pyridylmethyl)) = O=C(O)[C@H]1C[C@@H](Cc2ccncc2)CN1; Trp(βS-Me,4-F) = C[C@@H](c1c[nH]c2cccc(F)c12)[C@H](N)C(=O)O; 3Aminoazetidine3carboxyl = O=C(C1(N[*:1])CN([*:3])C1)[*:2]; Bip(4'-COOH) = N[C@@H](Cc1ccc(-c2ccc(C(=O)O)cc2)cc1)C(=O)O; Ala(1-bicyclo(1.1.1)pentyl) = N[C@@H](CC12CC(C1)C2)C(=O)O; dPro(4R-Bzl(4-F)) = O=C(O)[C@H]1C[C@@H](Cc2ccc(F)cc2)CN1; Ala(morpholin-4-yl) = N[C@@H](CN1CCOCC1)C(=O)O; Ala(pyrimidin-5-yl) = N[C@@H](Cc1cncnc1)C(=O)O; Phe(4-COOH) = N[C@@H](Cc1ccc(C(=O)O)cc1)C(=O)O; Pro(cis-4-F) = O=C(O)[C@@H]1C[C@H](F)CN1; 4Pal = N[C@@H](Cc1ccncc1)C(=O)O; d(αMeS) = C[C@@](N)(CO)C(=O)O; αMeS = C[C@](N)(CO)C(=O)O; Dab = NCC[C@H](N)C(=O)O; Aib = CC(C)(N)C(=O)O

This assay has as its target Recombinant human IL-1β (BioLegend 579404) (human, UniProt P01584 117-269). Description: cell-based or functional assay.
As to B1, the “MRC5 IC50” value worked out at 35 pM. Next, cyclo([TyrEtNAc][4Pal][Phe(4-COOH)]G[Pro(cis-4-F)][Trp(βS-Me,4-F)][Aib]SW[Aib][Ala(pyrimidin-5-yl)]Q[Dab]G[dPro(4R-Bzl(4-F))]) [SEQ ID NO: 16]: 51 pM. Next, B2: 35 pM; cyclo([Bip(4'-COOH)][4Pal][Phe(4-COOH)]G[Pro(cis-4-F)][Trp(βS-Me,4-F)][3Aminoazetidine3carboxyl]EW[Aib][Ala(pyrimidin-5-yl)]Q[Dab]G[dPro(4R-Bzl(4-F))]) [SEQ ID NO: 20]: 62 pM. B3: the “MRC5 IC50” value stood at 49 pM.

With B4, the “MRC5 IC50” value was 23 pM. For B5, the “MRC5 IC50” value is 21 pM.

As for B6, the “MRC5 IC50” value is 53 pM. Consider B7, for which the “MRC5 IC50” value is 27 pM. As to B8, the “MRC5 IC50” value stood at 40 pM.

Take B9: the “MRC5 IC50” value stood at 18 pM. Take B10: the “MRC5 IC50” value amounted to 29 pM. cyclo([Bip(4'-COOH)][4Pal][Phe(4-COOH)]G[Pro(cis-4-F)][Trp(βS-Me,4-F)][αMeS]EW[Aib][Ala(pyrimidin-5-yl)]Q[Dab]G[dPro(4R-Bzl(4-F))]) [SEQ ID NO: 22]: the “MRC5 IC50” value is 27 pM.
